Laboratory results: patent US20130116412

Experiments:
Ac-GFPG-NH2 = test system: T1, Ac-GFPG-NH2
T1 sequence: GFPG

[1] = test system: GST-(PPG)5, fusion of glutathione S-transferase and (Pro-Pro-Gly)5 with an intervening thrombin cleavage site
Sequence of GST-(PPG)5, fusion of glutathione S-transferase and (Pro-Pro-Gly)5 with an intervening thrombin cleavage site (chain, as listed by the source): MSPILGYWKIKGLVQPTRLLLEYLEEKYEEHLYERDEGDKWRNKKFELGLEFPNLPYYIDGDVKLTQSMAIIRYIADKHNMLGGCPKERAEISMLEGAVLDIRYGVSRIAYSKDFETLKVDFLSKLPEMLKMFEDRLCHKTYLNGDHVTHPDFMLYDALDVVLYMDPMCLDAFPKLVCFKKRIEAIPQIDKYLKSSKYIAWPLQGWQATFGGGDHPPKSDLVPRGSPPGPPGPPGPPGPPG

“human prolyl-4-hydroxylase (P4H), full-length tetramer produced from plasmid pBK1.PDI1.P4H7” was tested, and the “in vitro hydroxylation of proline, MALDI-TOF / LC-MS” value (Ac-GFPG-NH2) was “The positive control showed that the proline residue in Ac-GFPG-NH2 was hydroxylated” and the “in vitro hydroxylation of proline residues, MALDI-TOF of the cleaved peptide” value [1] was “up to 3 hydroxyproline residues were produced in the (PPG)5 peptide after incubation with P4H”.
